{"source": "paper PMC7585440", "about": "“Sclerostin inhibits Wnt signaling through tandem interaction with two LRP6 ectodomains” (Nature Communications, 2020)", "binders": {"B1": {"name": "human WT SOST with an N-terminal His6-SUMO tag (natural protein, UniProt Q9BQB4 24-213, looked up)", "chain": "QGWQAFKNDATEIIPELGEYPEPPPELENNKTMNRAENGGRPPHHPFETKDVSEYSCRELHFTRYVTDGPCRSAKPVTELVCSGQCGPARLLPNAIGRGKWWRPSGPDFRCIPDRYRAQRVQLLCPGGEAPRARKVRLVASCKCKRLTRFHNQSELKDFGTEAARPQKGRKPRPRARSAKANQAELENAY", "notes": "Sclerostin (SOST), human, wild type; Probably residues 24-213 (the truncated constructs begin at Q24 and the protein ends at Y213); Purified WT SOST ran as a doublet that PNGase F turned into one band (N175 likely glycosylated in part); also called Smo-SOST; SOST WT; source: High Five insect cells (pAcGP67A), purified (Ni-NTA, HiTrapQ, SEC), no tag cleavage; not shown: His6, N-terminal, kept; …"}}, "key": {"[1]": {"target": "T1, human LRP6 E1E2 (P21–P630) with a C-terminal 10× His tag (human, UniProt O75581 21-630)", "T1 construct": "Low-density lipoprotein receptor-related protein 6 (LRP6), human, ectodomains E1 and E2, residues P21-P630; Unlabelled form: crystal, SEC-MALS and fluorescence-SEC; An anti-His-tag antibody was used for the western blots of the fluorescence-SEC experiment; also called LRP6 ectodomains 1 and 2; source: High Five insect cells (baculovirus), secreted, purified (Ni-NTA, HiTrapQ, SEC); co-expressed …", "T1 sequence (looked up)": "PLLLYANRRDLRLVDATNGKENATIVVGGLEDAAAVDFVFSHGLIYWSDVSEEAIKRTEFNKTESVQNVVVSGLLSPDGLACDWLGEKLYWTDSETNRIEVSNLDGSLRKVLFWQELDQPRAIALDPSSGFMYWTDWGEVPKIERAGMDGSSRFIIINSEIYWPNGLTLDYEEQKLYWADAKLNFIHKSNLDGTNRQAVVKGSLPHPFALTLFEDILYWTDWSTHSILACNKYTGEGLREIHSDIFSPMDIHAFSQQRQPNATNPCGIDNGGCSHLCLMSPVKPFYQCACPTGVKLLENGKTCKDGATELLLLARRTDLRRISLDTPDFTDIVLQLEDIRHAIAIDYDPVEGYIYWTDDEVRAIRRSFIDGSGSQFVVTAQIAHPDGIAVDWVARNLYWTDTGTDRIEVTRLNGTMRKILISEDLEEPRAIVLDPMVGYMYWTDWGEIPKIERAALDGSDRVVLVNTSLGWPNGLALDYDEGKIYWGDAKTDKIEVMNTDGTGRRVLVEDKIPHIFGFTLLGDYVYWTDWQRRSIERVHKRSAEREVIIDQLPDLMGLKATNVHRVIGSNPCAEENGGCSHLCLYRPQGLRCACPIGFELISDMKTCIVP", "test": "SEC; fluorescence-SEC: purified LRP6 E1E2–Smo-SOST complex injected at 1.5, 1, 0.5 or 0.1 µM on Superdex 200 Increase 10/300 GL; 20 mM Tris pH 7.0, 200 mM NaCl; intrinsic tryptophan fluorescence; approximate KD", "conditions": "both partners purified"}, "[2]": {"target": "T2, human LRP6 E1E2 with a C-terminal 10× His tag, labeled with the dye NT-647 (human, UniProt O75581 21-630, dye NT-647 (Monolith NT Protein Labeling kit))", "T2 construct": "Low-density lipoprotein receptor-related protein 6 (LRP6), human, ectodomains E1 and E2; the limits P21-P630 are printed for the co-expression construct; the MST construct was cloned into another vector (pAcGP67A); also called Labeled LRP6 E1E2; source: High Five insect cells (pAcGP67A), purified (Ni-NTA, HiTrapQ, SEC), no tag cleavage; not shown: His10, C-terminal, kept", "T2 sequence (looked up)": "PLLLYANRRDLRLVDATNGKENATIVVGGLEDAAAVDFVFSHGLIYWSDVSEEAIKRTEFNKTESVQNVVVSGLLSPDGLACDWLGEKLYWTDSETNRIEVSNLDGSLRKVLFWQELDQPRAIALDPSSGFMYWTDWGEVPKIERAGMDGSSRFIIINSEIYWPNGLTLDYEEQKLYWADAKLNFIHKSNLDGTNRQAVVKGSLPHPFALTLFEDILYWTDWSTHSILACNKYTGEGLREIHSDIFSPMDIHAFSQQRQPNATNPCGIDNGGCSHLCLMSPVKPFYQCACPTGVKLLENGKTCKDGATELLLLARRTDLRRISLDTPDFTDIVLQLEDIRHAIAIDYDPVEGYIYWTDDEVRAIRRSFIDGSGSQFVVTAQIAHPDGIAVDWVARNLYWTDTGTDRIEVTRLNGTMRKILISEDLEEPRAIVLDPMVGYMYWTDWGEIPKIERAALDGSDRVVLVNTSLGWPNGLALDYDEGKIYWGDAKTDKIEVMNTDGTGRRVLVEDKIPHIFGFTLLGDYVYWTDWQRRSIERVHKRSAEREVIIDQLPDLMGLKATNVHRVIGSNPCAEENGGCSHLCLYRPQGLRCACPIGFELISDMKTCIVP", "test": "MST; LRP6 E1E2 or E1 labeled with NT-647 at ~5 nM, unlabeled SOST proteins or peptides titrated; 20 mM Tris-Cl pH 7.0, 200 mM NaCl, 0.5 mg/ml BSA, 0.05% Tween 20; 22 °C; Monolith NT.115 Pico", "conditions": "both partners purified"}}, "data": [{"binder": "B1", "values": [{"measurement": "Kd", "setting": "[1]", "result": "~50", "unit": "nM"}, {"measurement": "Kd", "setting": "[2]", "result": 170, "unit": "nM"}]}]}
